Assay results taken from PMC4428439.

B1: RssB, full-length, untagged, overexpressed in lysate [E. coli] / His6-IraP [E. coli] (parent)
chain 1: MTQPLVGKQILIVEDEQVFRSLLDSWFSSLGATTVLAADGVDALELLGGFTPDLMICDIAMPRMNGLKLLEHIRNRGDQTPVLVISATENMADIAKALRLGVEDVLLKPVKDLNRLREMVFACLYPSMFNSRVEEEERLFRDWDAMVDNPAAAAKLLQELQPPVQQVISHCRVNYRQLVAADKPGLVLDIAALSENDLAFYCLDVTRAGHNGVLAALLLRALFNGLLQEQLAHQNQRLPELGALLKQVNHLLRQANLPGQFPLLVGYYHRELKNLILVSAGLNATLNTGEHQVQISNGVPLGTLGNAYLNQLSQRCDAWQCQIWGTGGRLRLMLSAE
chain 2: MKNLIAELLFKLAQKEEESKELCAQVEALEIIVTAMLRNMAQNDQQRLIDQVEGALYEVKPDASIPDDDTELLRDYVKKLLKHPRQ

Variants of: B1
Assay: pull-down
Conditions: with His6-IraP [E. coli]; lysate of cells co-expressing RssB and His6-IraP applied to Ni-NTA beads; eluted with imidazole; n = 3; parent: 1; read off a plot

Variant | ratio to parent
chain 1 D58A | 0.6
chain 1 D58P | 0.36
